Holding throughout (assay type): cell-based, Staphylococcus aureus
In one assay the test system is S. aureus SHY97-4320. The assay is described as follows: SDS-PAGE protein profile of whole cells. How it is done: Staphylococcus aureus SHY97-4320 cells growth in MHB containing test compounds were suspended in electrophoresis sample buffer containing 2% sodium dodecyl sulfate (SDS) and 5% 2-mercaptoethanol to a final concentration of 0.1 g per ml. The samples were heated to 100° C. for 5 min before being loaded for electrophoresis on a discontinuous 0.1% SDS-polyacrylamide gel (SDS PAGE) with 6% polyacrylamide stacking gel and 10 or 12% polyacrylamide running gel. Gels were run on a Mini-Protean® II apparatus (Bio Rad laboratories, Richmond, Calif.). Protein profiles were visualised by staining with coomassie brilliant blue R-250 or by silver staining.

The next assay deals with S. aureus PC-1. The assay is described as follows: Cell morphology by transmission electron microscopy. The following applies: exposure to LF or LFC. How it is done: Bacterial cells were grown overnight on MHA or MHB containing sub-MICs of penicillin G with or without LF or LFC. Microorganisms were prepared for transmission electron microscopy by fixation with glutaraldehyde followed by ferritin labelling. This method allows good- preservation of capsular material. Briefly, bacterial cells grown in the presence or absence of antibiotics were fixed in cacodylate buffer (0.1 M, pH 7.0) containing 5% (v/v) glutaraldehyde, for 2 h at 20° C. Fixed microorganims were suspended in cacodylate buffer and allowed to react with the polycationic ferritin (Sigma Chemicals, St-Louis, Mo.; final concentration 1.0 mg/ml) for 30 min at 20° C. The reaction was slowed down by 10-fold dilution with buffer, and the microorganisms were centrifuged and washed three times in cacodylate buffer. Bacterial cells were then immobilized in 4% (w/v) agar, washed 5 times in cacodylate buffer and post-fixed with 2% (w/v) osmium tetroxide for 2 h. […]
Bacterial cells of PC-1 (a constitutively high producing β-lactamase strain) were grown overnight in MHB containing 8 μg/ml of penicillin G, 16 μg/ml of LFC alone or in combination for 4-h at 37° C. with agitation at 150 rpm. Bacteria cell morphology was evaluated by transmission electron microscopy after fixation and ferritin labelling method as previously described.

The subject of a further assay is S. aureus. The assay is described as follows: Growth inhibition and influence of iron. The method, then:
The effect of LF or LFC at concentration sub-MICs alone or in combination with sub-MICs of antibiotics on bacterial growth rate of S. aureus, E. coli and K. pneumoniae was determined by monitoring bacterial cultures in MHB with the O.D.600 nm or by the count of colony forming unit per ml (cfu/ml). A volume of 2.5 ml of overnight cultures in MHB adjusted to 0.5-1 McFarland standard in saline were used to inoculate a final volume of 25 ml of fresh MHB containing the desired concentration of tested compounds. All flasks were then incubated at 37° C. with agitation (200 rpm) for 9 h. Aliquots were removed every hour to determine the culture turbidity using the spectrophotometer Philips PU 8800 (Pye Unican Ltd, Cambridge, UK). The combined antibiotic effect on bacterial growth was also determined using concentrations of LF in the presence of different concentrations of antibiotics. Briefly, a volume of 3 ml of fresh MHB containing desired concentration of drugs was adjusted to an optical density of 0.4 at 540 nm after an overnight culture. The culture was then incubated at 37° C with agitation (200 rpm). After incubation, aliquots were removed to determine the culture turbidity (OD540nm) or cfu/ml. To determine the influence of the level of iron on of the growth inhibition by the test compound, 5 μM of FeCl3 were added to the media.

The test system of a further assay is S. aureus ATCC 25923. The assay can be described thus: Cell morphology by transmission electron microscopy. The following applies: LF 9.1 μg/ml alone; 18-h. How it is done:
Bacterial cells were grown overnight on MHA or MHB containing sub-MICs of penicillin G with or without LF or LFC. Microorganisms were prepared for transmission electron microscopy by fixation with glutaraldehyde followed by ferritin labelling. This method allows good- preservation of capsular material. Briefly, bacterial cells grown in the presence or absence of antibiotics were fixed in cacodylate buffer (0.1 M, pH 7.0) containing 5% (v/v) glutaraldehyde, for 2 h at 20° C. Fixed microorganims were suspended in cacodylate buffer and allowed to react with the polycationic ferritin (Sigma Chemicals, St-Louis, Mo.; final concentration 1.0 mg/ml) for 30 min at 20° C. The reaction was slowed down by 10-fold dilution with buffer, and the microorganisms were centrifuged and washed three times in cacodylate buffer. Bacterial cells were then immobilized in 4% (w/v) agar, washed 5 times in cacodylate buffer and post-fixed with 2% (w/v) osmium tetroxide for 2 h. Washings were repeated as above, and the samples dehydrated in a graded series of acetone washes. Samples were then washed twice in propylene oxide and embedded in Spurr low-viscosity resin. Thin sections were post-stained with uranyl acetate and lead citrate and examined with an electron microscope (Philips 201) at an accelerating voltage of 60 kV.

B1: LF: bovine lactoferrin, 80-kDa iron-binding glycoprotein found in milk (protein, UniProt P24627 20-708, looked up)
Lactotransferrin: APRKNVRWCTISQPEWFKCRRWQWRMKKLGAPSITCVRRAFALECIRAIAEKKADAVTLDGGMVFEAGRDPYKLRPVAAEIYGTKESPQTHYYAVAVVKKGSNFQLDQLQGRKSCHTGLGRSAGWIIPMGILRPYLSWTESLEPLQGAVAKFFSASCVPCIDRQAYPNLCQLCKGEGENQCACSSREPYFGYSGAFKCLQDGAGDVAFVKETTVFENLPEKADRDQYELLCLNNSRAPVDAFKECHLAQVPSHAVVARSVDGKEDLIWKLLSKAQEKFGKNKSRSFQLFGSPPGQRDLLFKDSALGFLRIPSKVDSALYLGSRYLTTLKNLRETAEEVKARYTRVVWCAVGPEEQKKCQQWSQQSGQNVTCATASTTDDCIVLVLKGEADALNLDGGYIYTAGKCGLVPVLAENRKSSKHSSLDCVLRPTEGYLAVAVVKKANEGLTWNSLKDKKSCHTAVDRTAGWNIPMGLIVNQTGSCAFDEFFSQSCAPGADPKSRLCALCAGDDQGLDKCVPNSKEKYYGYTGAFRCLAEDVGDVAFVKNDTVWENTNGESTADWAKNLNREDFRLLCLDGTRKPVTEAQSCHLAVAPNHAVVSRSDRAAHVKQVLLHQQALFGKNGKNCPDKFCLFKSETKNLLFNDNTECLAKLGGRPTYEEYLGTEYVTAIANLKKCSTSPLLEACAFLTR
B1: the “proteins of approximately 59, 42 and 27 kDa in protein profile” value with S. aureus SHY97-4320 (1 mg/ml LF in combination to 8 μg/ml penicillin G) was “absent”; in the assay with S. aureus SHY97-4320 (compound alone: 8 μg/ml penicillin G or 1 mg/ml LF, 4-h of growth), “absent”. Further, the “shape and size of cells” value in the assay with S. aureus PC-1 is “affected the shape and the size”. In the assay with S. aureus, the “effect of addition of 5 μM of FeCl3 on LF growth inhibitory activity” value is on record as “did not affect”. Also, the growth inhibitory activity result in the assay on S. aureus (bovine LF saturated to 16.2% of iron) is “demonstrated a growth inhibitory activity”. Also, the cell morphology result with S. aureus ATCC 25923 is “no obvious effect”.
